# Reference: PMC2408616, “Modular Organization and Combinatorial Energetics of Proline–Tyrosine Nuclear Localization Signals” (PLoS Biology, 2008)
# Like-named read-outs stand apart in the source and are kept apart here.
# B1: MBP–Hrp1p NLS 519RGGYN523/AAAAA (domain or fragment, S. cerevisiae, UniProt Q99383 494-534, looked up)
# chain: RDRNDRDRDYNHRSGGNHRRNGRGGAAAAARRNNGYHPYNR
# notes: Hrp1p NLS, residues 494-534; source: E. coli BL21(DE3), purified (amylose resin, cation exchange)
# B2: MBP–Nab2p NLS 210GGG212/AAA (protein)
# chain: DNSQRFTQRAAAAVGKNRRGGRGGNRGGRNNNSTRFNPLAKALGMAGESNM
# B3: MBP–Hrp1p NLS R524A (peptide)
# chain: RDRNDRDRDYNHRSGGNHRRNGRGGRGGYNARNNGYHPYNR
# B4: MBP–Hrp1p NLS R512A, 524RR525/AA (peptide)
# chain: RDRNDRDRDYNHRSGGNHARNGRGGRGGYNAANNGYHPYNR
# B5: MBP–Hrp1p NLS R525A (peptide)
# chain: RDRNDRDRDYNHRSGGNHRRNGRGGRGGYNRANNGYHPYNR
# B6: MBP–Hrp1p NLS R512A, Y529A (peptide)
# chain: RDRNDRDRDYNHRSGGNHARNGRGGRGGYNRRNNGAHPYNR
# B7: GST–Hrp1p, full-length (natural protein, S. cerevisiae, UniProt Q99383 1-534, looked up)
# chain: MSSDEEDFNDIYGDDKPTTTEEVKKEEEQNKAGSGTSQLDQLAALQALSSSLNKLNNPNSNNSSSNNSNQDTSSSKQDGTANDKEGSNEDTKNEKKQESATSANANANASSAGPSGLPWEQLQQTMSQFQQPSSQSPPQQQVTQTKEERSKADLSKESCKMFIGGLNWDTTEDNLREYFGKYGTVTDLKIMKDPATGRSRGFGFLSFEKPSSVDEVVKTQHILDGKVIDPKRAIPRDEQDKTGKIFVGGIGPDVRPKEFEEFFSQWGTIIDAQLMLDKDTGQSRGFGFVTYDSADAVDRVCQNKFIDFKDRKIEIKRAEPRHMQQKSSNNGGNNGGNNMNRRGGNFGNQGDFNQMYQNPMMGGYNPMMNPQAMTDYYQKMQEYYQQMQKQTGMDYTQMYQQQMQQMAMMMPGFAMPPNAMTLNQPQQDSNATQGSPAPSDSDNNKSNDVQTIGNTSNTDSGSPPLNLPNGPKGPSQYNDDHNSGYGYNRDRGDRDRNDRDRDYNHRSGGNHRRNGRGGRGGYNRRNNGYHPYNR
# notes: Hrp1p, S. cerevisiae; also called full-length Hrp1p; source: E. coli BL21(DE3), immobilized on glutathione sepharose
# B8: GST–Tfg2p, full-length (natural protein, S. cerevisiae, UniProt P41896 1-400, looked up)
# chain: MSSGSAGAPALSNNSTNSVAKEKSGNISGDEYLSQEEEVFDGNDIENNETKVYEESLDLDLERSNRQVWLVRLPMFLAEKWRDRNNLHGQELGKIRINKDGSKITLLLNENDNDSIPHEYDLELTKKVVENEYVFTEQNLKKYQQRKKELEADPEKQRQAYLKKQEREEELKKKQQQQKRRNNRKKFNHRVMTDRDGRDRYIPYVKTIPKKTAIVGTVCHECQVMPSMNDPNYHKIVEQRRNIVKLNNKERITTLDETVGVTMSHTGMSMRSDNSNFLKVGREKAKSNIKSIRMPKKEILDYLFKLFDEYDYWSLKGLKERTRQPEAHLKECLDKVATLVKKGPYAFKYTLRPEYKKLKEEERKATLGELADEQTGSAGDNAQGDAEADLEDEIEMEDVV
# notes: Tfg2p, S. cerevisiae; source: E. coli BL21(DE3), immobilized on glutathione sepharose
# B9: GST–Nab2p, full-length (natural protein, S. cerevisiae, UniProt P32505 1-525, looked up)
# chain: MSQEQYTENLKVIVAEKLAGIPNFNEDIKYVAEYIVLLIVNGGTVESVVDELASLFDSVSRDTLANVVQTAFFALEALQQGESAENIVSKIRMMNAQSLGQSDIAQQQQQQQQQQQPDIAQQQPQQQPQQQPQQQPQQQPQQQPQQQPQQQPQQQPQLQPLQPQLGTQNAMQTDAPATPSPISAFSGVVNAAAPPQFAPVDNSQRFTQRGGGAVGKNRRGGRGGNRGGRNNNSTRFNPLAKALGMAGESNMNFTPTKKEGRCRLFPHCPLGRSCPHAHPTKVCNEYPNCPKPPGTCEFLHPNEDEELMKEMERTREEFQKRKADLLAAKRKPVQTGIVLCKFGALCSNPSCPFGHPTPANEDAKVIDLMWCDKNLTCDNPECRKAHSSLSKIKEVKPISQKKAAPPPVEKSLEQCKFGTHCTNKRCKYRHARSHIMCREGANCTRIDCLFGHPINEDCRFGVNCKNIYCLFRHPPGRVLPEKKGAAPNSNVPTNERPFALPENAIIENAPPQTSFTHQEQDTEMN
# notes: Nab2p, S. cerevisiae; also called full-length Nab2p; source: E. coli BL21(DE3), immobilized on glutathione sepharose
# Experiments:
# Kap104p, P38217 = biological target: T1, Kap104p, P38217; assay: ITC
# T1 chain: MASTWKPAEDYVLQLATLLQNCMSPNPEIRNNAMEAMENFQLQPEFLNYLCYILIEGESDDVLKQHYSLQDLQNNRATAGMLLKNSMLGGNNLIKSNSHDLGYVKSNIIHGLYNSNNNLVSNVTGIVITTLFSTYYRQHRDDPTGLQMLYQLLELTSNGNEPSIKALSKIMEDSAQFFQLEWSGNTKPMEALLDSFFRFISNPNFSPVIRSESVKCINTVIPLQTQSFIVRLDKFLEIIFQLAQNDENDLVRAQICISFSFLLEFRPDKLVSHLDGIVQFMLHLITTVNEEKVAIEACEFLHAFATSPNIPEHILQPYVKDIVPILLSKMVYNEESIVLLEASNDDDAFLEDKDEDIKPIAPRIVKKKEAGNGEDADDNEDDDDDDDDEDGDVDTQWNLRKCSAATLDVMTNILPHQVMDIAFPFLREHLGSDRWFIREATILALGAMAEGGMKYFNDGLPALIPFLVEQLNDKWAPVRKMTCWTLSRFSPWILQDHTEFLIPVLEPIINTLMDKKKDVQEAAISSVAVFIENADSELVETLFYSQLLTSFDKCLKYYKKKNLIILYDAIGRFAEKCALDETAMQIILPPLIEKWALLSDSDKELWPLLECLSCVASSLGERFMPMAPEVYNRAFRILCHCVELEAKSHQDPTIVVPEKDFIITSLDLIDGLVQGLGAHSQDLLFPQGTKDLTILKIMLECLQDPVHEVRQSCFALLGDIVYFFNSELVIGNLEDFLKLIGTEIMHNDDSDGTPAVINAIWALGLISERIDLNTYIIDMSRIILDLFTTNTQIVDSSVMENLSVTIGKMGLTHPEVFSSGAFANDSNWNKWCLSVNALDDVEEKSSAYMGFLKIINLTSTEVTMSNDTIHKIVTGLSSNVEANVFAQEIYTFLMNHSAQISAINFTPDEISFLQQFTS
# Kap104p [1] = biological target: T2, Kap104p (yeast (S. cerevisiae), UniProt P38217 1-918); assay: ITC; 90–350 μM MBP-NLS titrated into 9–35 μM Kap104p in the cell; 20 °C; 20 mM Tris pH 7.5, 100 mM NaCl, 2 mM β-mercaptoethanol, 10% glycerol; 35 injections of 8 μl; single-site model; conditions: both partners purified
# T2 construct: Kap104p, yeast homolog of Kapβ2; gene a gift from J. Aitchison, subcloned into pGEX-Tev; also called yeast Karyopherin β2 homolog; source: E. coli Rosetta(DE3)pLysS, purified (glutathione sepharose, TEV cleavage, anion exchange, gel filtration)
# T2 sequence (looked up): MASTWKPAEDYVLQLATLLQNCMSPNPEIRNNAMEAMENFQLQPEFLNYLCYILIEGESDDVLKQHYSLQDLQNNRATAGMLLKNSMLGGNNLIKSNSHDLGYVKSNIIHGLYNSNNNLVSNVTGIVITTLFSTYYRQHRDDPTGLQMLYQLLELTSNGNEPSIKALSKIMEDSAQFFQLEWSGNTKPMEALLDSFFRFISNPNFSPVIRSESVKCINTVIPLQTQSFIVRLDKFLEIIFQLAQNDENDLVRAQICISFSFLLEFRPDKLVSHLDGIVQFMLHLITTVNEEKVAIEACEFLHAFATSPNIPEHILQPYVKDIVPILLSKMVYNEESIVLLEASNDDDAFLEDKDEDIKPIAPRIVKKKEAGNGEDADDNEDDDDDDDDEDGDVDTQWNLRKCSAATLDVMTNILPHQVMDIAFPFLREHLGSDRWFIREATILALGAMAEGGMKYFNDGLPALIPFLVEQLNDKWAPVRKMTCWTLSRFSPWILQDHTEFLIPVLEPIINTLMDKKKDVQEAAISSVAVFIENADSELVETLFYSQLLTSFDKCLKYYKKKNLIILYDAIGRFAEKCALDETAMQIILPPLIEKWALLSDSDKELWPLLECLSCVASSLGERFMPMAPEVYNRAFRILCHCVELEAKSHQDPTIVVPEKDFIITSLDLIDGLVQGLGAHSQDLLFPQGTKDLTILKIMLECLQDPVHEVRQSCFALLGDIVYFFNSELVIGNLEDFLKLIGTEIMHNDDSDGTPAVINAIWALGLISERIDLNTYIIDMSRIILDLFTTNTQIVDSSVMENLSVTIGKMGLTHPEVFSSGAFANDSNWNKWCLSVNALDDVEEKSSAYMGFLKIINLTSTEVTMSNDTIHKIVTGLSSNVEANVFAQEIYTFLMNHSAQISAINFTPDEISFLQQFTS
# Kap104p [2] = biological target: Kap104p (UniProt P38217); assay: ITC
# Kap104p [3] = biological target: T3, Kap104p (yeast (S. cerevisiae), UniProt P38217 1-918); assay: ITC
# T3 chain: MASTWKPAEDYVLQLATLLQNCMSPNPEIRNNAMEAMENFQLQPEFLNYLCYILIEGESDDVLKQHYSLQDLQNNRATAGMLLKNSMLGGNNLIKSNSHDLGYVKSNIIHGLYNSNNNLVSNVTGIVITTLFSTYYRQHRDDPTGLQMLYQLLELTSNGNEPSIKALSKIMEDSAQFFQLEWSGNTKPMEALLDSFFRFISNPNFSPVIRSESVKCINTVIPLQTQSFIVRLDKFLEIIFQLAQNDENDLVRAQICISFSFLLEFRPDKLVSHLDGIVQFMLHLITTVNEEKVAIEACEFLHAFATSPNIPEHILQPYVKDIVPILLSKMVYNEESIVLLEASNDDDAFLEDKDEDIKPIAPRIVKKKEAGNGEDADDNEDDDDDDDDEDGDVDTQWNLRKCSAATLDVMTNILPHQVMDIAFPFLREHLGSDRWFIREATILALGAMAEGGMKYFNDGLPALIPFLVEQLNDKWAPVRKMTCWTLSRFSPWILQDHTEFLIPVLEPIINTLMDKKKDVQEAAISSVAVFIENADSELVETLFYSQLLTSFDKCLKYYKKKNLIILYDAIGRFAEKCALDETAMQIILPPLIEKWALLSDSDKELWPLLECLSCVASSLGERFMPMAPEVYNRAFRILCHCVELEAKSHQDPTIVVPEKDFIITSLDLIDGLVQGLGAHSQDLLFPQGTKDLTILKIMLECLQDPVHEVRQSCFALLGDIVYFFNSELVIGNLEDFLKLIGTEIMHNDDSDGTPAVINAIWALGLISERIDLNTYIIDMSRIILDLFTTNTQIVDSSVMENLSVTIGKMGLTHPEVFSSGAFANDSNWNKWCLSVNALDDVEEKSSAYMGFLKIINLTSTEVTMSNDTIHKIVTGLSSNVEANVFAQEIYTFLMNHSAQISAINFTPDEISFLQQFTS
# Kap104p [4] = biological target: T3, Kap104p; assay: ITC
# Kap104p [5] = biological target: T2, Kap104p; assay: pull-down; ~30 μg Kap104p added to ~10 μg GST protein immobilized on 20 μl glutathione sepharose; washes with TB buffer (20 mM HEPES pH 7.3, 110 mM KAc, 2 mM MgAc, 1 mM EGTA, 2 mM DTT, 20% glycerol); second incubation with buffer or RanGTP (5-fold molar excess); SDS-PAGE, Coomassie; conditions: both partners purified
binder,measurement,setting,value
B1,ddG,"Kap104p, P38217; chain shown with the change",-0.4 kcal/mol
same,ratio to parent,"Kap104p, P38217; chain shown with the change",0.5
same,other: TΔS,"Kap104p, P38217; chain shown with the change;, parent: 0.09 ± 0.7",-3.8 kcal/mol/K
same,Kd,"Kap104p, P38217; chain shown with the change;, parent: 32 ± 16",17 nM
same,other: ΔH,"Kap104p, P38217; chain shown with the change;, parent: -10.0 ± 0.5",-14.2 kcal/mol
same,dG,"Kap104p, P38217; chain shown with the change;, parent: -10.1 ± 0.3",-10.4 kcal/mol
same,binding result,Kap104p [1],binds
B2,ddG,Kap104p [2],-0.4 kcal/mol
same,ratio to parent,Kap104p [2],0.5
same,Kd,Kap104p [2]; parent: 37 ± 20,19 nM
same,other: TΔS,Kap104p [2]; parent: -1.3 ± 0.6,0.5 kcal/mol
same,dG,Kap104p [2]; parent: -10.0 ± 0.3,-10.4 kcal/mol
same,other: ΔH,Kap104p [2]; parent: -11.3 ± 0.5,-9.8 kcal/mol
same,Kd,Kap104p [3],19 nM
B3,Kd,Kap104p [4],37 nM
B4,Kd,Kap104p [4],44 nM
B5,Kd,Kap104p [4],13 nM
B6,Kd,Kap104p [4],60 nM
B7,binding result,Kap104p [5],binds
B8,binding result,Kap104p [5],binds
B9,binding result,Kap104p [5],binds
